In publication PMC7504393 (International Journal of Molecular Sciences, 2020):

How the values were obtained:
[1] = biological target: T1, recombinant human YKL-40 protein (hYKL-40) (Homo sapiens, UniProt P36222); assay: ELISA; hYKL-40 coated at 2 ug/mL (30 uL per well, overnight, 4 °C); serially diluted Fabs, 1 h at 37 °C; detection with HRP-conjugated StrepMAB-Classic; apparent affinity (EC50); settings: both partners purified
T1 construct: human YKL-40 (chitinase-3-like 1, CHI3L1), recombinant protein from Sino Biological; also called chitinase-3-like 1; CHI3L1; source: bought: Sino Biological

[2] = biological target: T2, native YKL-40 from murine cells (Mus musculus, UniProt Q61362); assay: western blot; H1 (IgG) as the probing antibody on lysates of human and murine cells (Figure S5); settings: one partner purified
T2 construct: mouse YKL-40 (chitinase-3-like protein 1), endogenous in murine cells; source: endogenous, murine cell lysates (including mouse lung cells)

recombinant mouse YKL-40 = biological target: T3, recombinant mouse YKL-40 (Mus musculus, UniProt Q61362); assay: western blot; H1 (IgG) as the probing antibody on recombinant human and mouse YKL-40 (Figure S5); settings: both partners purified
T3 construct: mouse YKL-40 (chitinase-3-like protein 1), recombinant

[3] = biological target: T1, recombinant human YKL-40 protein …; assay: ELISA; soluble ELISA of serially diluted IgGs on immobilized hYKL-40 surfaces; apparent affinity (EC50); settings: both partners purified
[4] = biological target: T1, recombinant human YKL-40 protein …; assay: BLI; Octet QK384; hYKL-40 amine-coupled to AR2G tips (15 ug/mL, 10 mM sodium acetate pH 5.0); H1 (IgG) 50 nM~0 nM in 2-fold dilutions in PBS with 0.09% Tween 20; 1:1 binding model; apparent KD; settings: both partners purified

T1 sequence (P36222 22-383): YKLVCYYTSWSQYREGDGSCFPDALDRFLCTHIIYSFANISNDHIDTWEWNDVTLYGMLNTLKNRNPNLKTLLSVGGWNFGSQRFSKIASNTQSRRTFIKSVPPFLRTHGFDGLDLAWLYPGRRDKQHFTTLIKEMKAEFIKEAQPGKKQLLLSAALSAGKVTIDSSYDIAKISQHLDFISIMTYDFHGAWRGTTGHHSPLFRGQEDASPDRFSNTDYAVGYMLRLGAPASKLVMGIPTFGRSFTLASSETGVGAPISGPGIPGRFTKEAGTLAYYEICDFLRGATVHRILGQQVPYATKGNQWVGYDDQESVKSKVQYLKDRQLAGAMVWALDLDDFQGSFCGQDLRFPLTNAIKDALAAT
T2 sequence (Q61362 30-389): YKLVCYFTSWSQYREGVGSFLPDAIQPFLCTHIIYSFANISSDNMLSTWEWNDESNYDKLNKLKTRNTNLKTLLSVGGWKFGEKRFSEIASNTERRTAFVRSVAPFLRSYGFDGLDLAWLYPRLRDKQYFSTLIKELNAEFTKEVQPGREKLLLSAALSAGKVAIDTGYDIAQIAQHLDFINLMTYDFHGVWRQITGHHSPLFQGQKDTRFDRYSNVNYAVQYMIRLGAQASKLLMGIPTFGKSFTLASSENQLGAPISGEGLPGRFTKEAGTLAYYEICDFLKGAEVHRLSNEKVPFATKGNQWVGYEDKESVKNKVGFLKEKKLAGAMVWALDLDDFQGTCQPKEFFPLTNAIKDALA
T3 sequence (Q61362 30-389): as above

B1: H1 (Fab), human anti-hYKL-40 Fab (Fab, V domains shown)
VH: EVQLVESGGGLVQPGGSLRLSCAASGFTFSNYAMSWVRQAPGKGLEWVSGISGSGGTTYYADSVKGRFTISRDNSKNTLYLQMNSLRAEDTAVYYCAGVGTFDVWGQGTLVTVSS
VL: DIQMTQSPSSLSASVGDRVTITCRASQTISSWLNWYQQKPGKAPKLLIYAASRLQSGVPSRFSGSGSGTDFTLTISSLQPEDFATYYCQQSYSTPLTFGQGTKVEIK
notes: heavy chain (VH-CH1) of the H1 Fab, from the synthetic library KFab-I (human VH3 framework, randomised CDRs); light chain (VL-CL) of the H1 Fab, from the synthetic library KFab-I (human Vk1 framework, randomised CDRs); it is written on the heavy chain as a surmise; Expression vector pKFAB (in-house); source: E. coli Top10F', periplasmic extract, purified (Strep-Tactin XT)
[1]
  EC50: 2.3 nM

B2: H1 (IgG), human anti-hYKL-40 IgG (antibody, V domains shown)
VH: EVQLVESGGGLVQPGGSLRLSCAASGFTFSNYAMSWVRQAPGKGLEWVSGISGSGGTTYYADSVKGRFTISRDNSKNTLYLQMNSLRAEDTAVYYCAGVGTFDVWGQGTLVTVSS
VL: DIQMTQSPSSLSASVGDRVTITCRASQTISSWLNWYQQKPGKAPKLLIYAASRLQSGVPSRFSGSGSGTDFTLTISSLQPEDFATYYCQQSYSTPLTFGQGTKVEIK
notes: VH of H1, as in the heavy chain of m2 (PDB 7CJ2); human VH3 framework; human IgG1 heavy-chain constant region, from the heavy-chain vector (pOptiVEC) used for Herceptin expression as IgG1 backbone; VL-CL (Vk1, Ck1) of H1, as the light chain of m2 (PDB 7CJ2); IgG1, kappa; VL and CL were amplified and joined by overlap extension PCR; VH was cloned into the Herceptin IgG1 backbone; also called H1 …
[2]
  binding result: binds
Recombinant mouse YKL-40
  binding result: binds
[3]
  EC50: 0.5 nM
[4]
  Kd: 0.05 nM
